Consider 2 molecules from patent publication US20260116960A1 (SHANGHAI HONGCHENG BIOPHARMACEUTICAL, published 2026).

The target of experiment [1] is T1, Biotinylated Human VEGF165 (Acro, Catalog No. VE5-H82Q0) (human, UniProt P15692-4 27-191, biotinylated (site not stated)).
T1 construct: Bought protein; also called Biotinylated-hVEGF165; Biotin-hVEGF165
Put plainly: flow cytometry: antibody titrated on 293T-hPD-1-hCTLA-4 cells, detected with 2 ug/mL biotin-hVEGF165 and PE streptavidin. The protocol:
After centrifugation at 300 g for 5 minutes, the supernatant was discarded, and 100 μL of trispecific antibody solution serially diluted 3-fold with FACS buffer was added, with a starting concentration of 200 nM, and the same volume of FACS buffer was added as a negative control. After mixing, incubated at 4° C. for 60 minutes. After centrifugation and washing three times with FACS buffer, 2 μg/mL Biotin-hVEGF165 was added at 100 μL/well and incubated at 4° C. for 60 minutes. After centrifugation and washing three times with FACS buffer, 100 μL/well of 1:800 diluted PE Streptavidin (BD, Catalog No.: 554061) was added and incubated at 4° C. for 50 minutes. After centrifugation and washing three times with FACS buffer, 100 μL/well of FACS buffer was added to resuspend the cells, and the fluorescence signal was detected on a flow cytometer (BECKMAN COULTER cytoFLEX). The binding activity was fitted using a four-parameter model, and the EC₅₀ value of each antibody binding was calculated.

The target in experiment [2] is T2, human PD-1 on the cell surface (human, UniProt Q15116 25-288).
T2 construct: whole, on cells; also called cell surface PD-1
The experiment in a line: flow cytometry competition, 293T-hPD-1 cells, biotin-human PD-L1. (In general: Flow cytometry measures light scatter and fluorescence of single cells or particles in a stream.)

Experiment [3] has as its target T3, human CTLA-4 on the cell surface (human, UniProt P16410 36-223).
T3 construct: whole, on cells; also called CHO-hCTLA-4 cells; CHOK1-hCTLA4 cells
The experiment in a line: flow cytometry, CHO-hCTLA-4 cells, batch FACS#3.

The target in experiment [4] is human PD-1 protein (Acro, PD1-H5257) (human, UniProt Q15116 25-167). Put plainly: competitive ELISA, PD-1 coated, biotin-PD-L1 as labelled ligand.
The target of experiment [5] is T4, hCTLA4-mFc (DIMA BIOTECH, Catalog No. PME100017) (human, UniProt P16410 36-161, limits assumed).
T4 construct: Bought protein; also called human CTLA-4 mouse Fc fusion; not shown: mouse Fc (mFc)
Put plainly: flow cytometry: antibody titrated on 293T-hPD-1 cells, then mixture of biotin-hVEGF165 and hCTLA4-mFc; AF647 anti-mIgG signal; CTLA-4 signal after binding to cell surface PD-1. The procedure: (§1) 200 μL/well of the cells were added to a 96-well U-bottom plate. After centrifugation at 300 g for 5 minutes, the supernatant was discarded and 100 μL of antibody solution serially diluted with FACS buffer was added to each well in triplicate (with starting concentration of 200 nM, 3-fold serial dilution, and the same volume of FACS buffer was used as a negative control). Mixed well and incubated at 4° C. for 60 min. After washing the plate three times with FACS buffer, a mixture consisting of 1 μg/mL Biotin-hVEGF165 and 1 μg/mL hCTLA4-mFc (DIMA BIOTECH, Catalog No.: PME100017) in a 1:1 volume ratio was added to each well at 100 μL/well to detect the simultaneously binding activity of the trispecific antibodies to CTLA-4 and VEGF after binding to cell surface PD-1. […] After washing the plate three times with FACS buffer, 100 μL/well of PBS solution was added to resuspend the cells, and the fluorescence signal was detected on a flow cytometer (BECKMAN COULTER cytoFLEX). The binding activity was fitted using a four-parameter model, and the EC₅₀ value of each antibody was calculated.

Experiment [6] addresses T5, human VEGF165-his protein (Acro, Catalog No. VE5-H5248) (human, UniProt P15692-4 27-191).
T5 construct: Bought protein; also called hVEGF165-His; VEGFA; not shown: his tag
Put plainly: competitive ELISA, VEGF165-His coated, biotin-human KDR. In general terms: In an ELISA, binding on a coated surface is turned into a signal by an enzyme label.

Experiment [7] concerns the target T1, Biotinylated Human VEGF165 (Acro, …). Put plainly: flow cytometry: antibody titrated on 293T-hPD-1 cells, then mixture of biotin-hVEGF165 and hCTLA4-mFc; PE streptavidin signal; VEGF signal after binding to cell surface PD-1. The protocol:
as §1

T1 sequence (P15692 other isoform, or with tags, fused parts or gaps limits assumed): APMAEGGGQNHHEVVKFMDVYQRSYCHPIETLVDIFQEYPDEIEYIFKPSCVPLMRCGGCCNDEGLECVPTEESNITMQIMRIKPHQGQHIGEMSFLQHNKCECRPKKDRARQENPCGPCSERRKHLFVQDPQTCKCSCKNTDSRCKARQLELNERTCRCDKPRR
T3 sequence (P16410 36-223): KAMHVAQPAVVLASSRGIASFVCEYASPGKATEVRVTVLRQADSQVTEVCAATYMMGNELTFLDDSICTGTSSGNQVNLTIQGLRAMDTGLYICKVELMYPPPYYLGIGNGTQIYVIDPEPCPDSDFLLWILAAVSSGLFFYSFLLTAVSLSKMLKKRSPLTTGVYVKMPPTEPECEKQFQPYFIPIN
human PD-1 protein (Acro, PD1-H5257), sequence (Q15116 25-167 limits assumed): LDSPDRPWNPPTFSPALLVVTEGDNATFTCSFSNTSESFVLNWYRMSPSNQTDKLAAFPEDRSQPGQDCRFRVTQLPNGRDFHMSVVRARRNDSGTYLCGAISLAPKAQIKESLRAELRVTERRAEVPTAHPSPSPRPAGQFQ
T2 sequence (Q15116 25-288): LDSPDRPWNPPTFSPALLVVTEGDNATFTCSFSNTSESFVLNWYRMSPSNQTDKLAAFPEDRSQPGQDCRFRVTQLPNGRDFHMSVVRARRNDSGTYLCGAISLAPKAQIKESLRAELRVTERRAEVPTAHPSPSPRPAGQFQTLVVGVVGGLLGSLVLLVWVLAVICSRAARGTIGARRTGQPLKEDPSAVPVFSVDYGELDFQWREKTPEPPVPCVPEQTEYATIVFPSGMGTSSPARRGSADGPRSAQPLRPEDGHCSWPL
T4 sequence (P16410 36-161 limits assumed): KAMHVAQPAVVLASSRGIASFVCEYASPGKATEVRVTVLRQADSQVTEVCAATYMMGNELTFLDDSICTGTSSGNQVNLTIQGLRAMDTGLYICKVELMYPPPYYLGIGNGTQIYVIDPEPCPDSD
T5 sequence (P15692 other isoform, or with tags, fused parts or gaps limits assumed): as the sequence (P15692 other isoform, or with tags, fused parts or gaps limits assumed) above

B1: HC010-F9 (trispecific antibody, human IgG4 S228P, kappa)
heavy: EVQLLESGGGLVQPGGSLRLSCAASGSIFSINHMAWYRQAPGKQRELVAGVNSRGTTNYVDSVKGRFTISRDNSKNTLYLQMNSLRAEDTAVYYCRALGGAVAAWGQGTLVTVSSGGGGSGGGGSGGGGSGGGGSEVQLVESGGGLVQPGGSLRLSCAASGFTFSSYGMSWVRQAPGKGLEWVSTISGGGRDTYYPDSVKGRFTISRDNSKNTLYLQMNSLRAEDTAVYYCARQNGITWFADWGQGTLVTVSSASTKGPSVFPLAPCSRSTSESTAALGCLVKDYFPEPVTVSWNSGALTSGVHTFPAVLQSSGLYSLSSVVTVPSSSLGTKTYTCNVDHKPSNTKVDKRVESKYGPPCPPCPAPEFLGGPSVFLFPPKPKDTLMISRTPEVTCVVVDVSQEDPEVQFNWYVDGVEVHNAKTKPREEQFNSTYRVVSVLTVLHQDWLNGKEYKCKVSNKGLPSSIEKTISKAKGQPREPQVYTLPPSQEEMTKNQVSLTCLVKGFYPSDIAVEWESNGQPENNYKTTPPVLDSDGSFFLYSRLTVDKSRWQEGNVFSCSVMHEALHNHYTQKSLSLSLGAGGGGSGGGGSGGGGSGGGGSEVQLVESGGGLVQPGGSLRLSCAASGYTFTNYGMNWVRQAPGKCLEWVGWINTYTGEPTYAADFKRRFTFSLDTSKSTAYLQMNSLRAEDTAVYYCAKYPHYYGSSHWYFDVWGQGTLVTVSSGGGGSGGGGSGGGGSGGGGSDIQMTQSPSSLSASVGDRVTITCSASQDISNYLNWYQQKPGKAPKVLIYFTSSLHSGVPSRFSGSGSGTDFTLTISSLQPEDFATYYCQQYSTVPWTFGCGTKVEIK
light: DIQMTQSPSSLSASVGDRVTITCRASESVDNYGISFMNWYQQKPGKAPKLLIYAASNQGSGVPSRFSGSGSGTDFTLTISSLQPEDFATYYCQQSKEVPWTFGGGTKVEIKRTVAAPSVFIFPPSDEQLKSGTASVVCLLNNFYPREAKVQWKVDNALQSGNSQESVTEQDSKDSTYSLSSTLTLSKADYEKHKVYACEVTHQGLSSPVTKSFNRGEC
notes: light: CQ1-3/1-11 VL-kappa; also called H010-F9
As usually defined, the EC50 is the concentration at which the effect is half-maximal. As a reminder, the IC50 is the midpoint of a concentration-inhibition curve. The low end stands for greater potency in that assay, the high end for weaker potency in that assay. As for B1, the EC50 in experiment [1] was 4.2 nM; in experiment [3], 2.8 nM. For the same molecule, the IC50 in experiment [2] came to 5 nM; in experiment [4] it was 0.923 nM.

B2: HC010-F10 (trispecific antibody, human IgG4 S228P, kappa)
heavy: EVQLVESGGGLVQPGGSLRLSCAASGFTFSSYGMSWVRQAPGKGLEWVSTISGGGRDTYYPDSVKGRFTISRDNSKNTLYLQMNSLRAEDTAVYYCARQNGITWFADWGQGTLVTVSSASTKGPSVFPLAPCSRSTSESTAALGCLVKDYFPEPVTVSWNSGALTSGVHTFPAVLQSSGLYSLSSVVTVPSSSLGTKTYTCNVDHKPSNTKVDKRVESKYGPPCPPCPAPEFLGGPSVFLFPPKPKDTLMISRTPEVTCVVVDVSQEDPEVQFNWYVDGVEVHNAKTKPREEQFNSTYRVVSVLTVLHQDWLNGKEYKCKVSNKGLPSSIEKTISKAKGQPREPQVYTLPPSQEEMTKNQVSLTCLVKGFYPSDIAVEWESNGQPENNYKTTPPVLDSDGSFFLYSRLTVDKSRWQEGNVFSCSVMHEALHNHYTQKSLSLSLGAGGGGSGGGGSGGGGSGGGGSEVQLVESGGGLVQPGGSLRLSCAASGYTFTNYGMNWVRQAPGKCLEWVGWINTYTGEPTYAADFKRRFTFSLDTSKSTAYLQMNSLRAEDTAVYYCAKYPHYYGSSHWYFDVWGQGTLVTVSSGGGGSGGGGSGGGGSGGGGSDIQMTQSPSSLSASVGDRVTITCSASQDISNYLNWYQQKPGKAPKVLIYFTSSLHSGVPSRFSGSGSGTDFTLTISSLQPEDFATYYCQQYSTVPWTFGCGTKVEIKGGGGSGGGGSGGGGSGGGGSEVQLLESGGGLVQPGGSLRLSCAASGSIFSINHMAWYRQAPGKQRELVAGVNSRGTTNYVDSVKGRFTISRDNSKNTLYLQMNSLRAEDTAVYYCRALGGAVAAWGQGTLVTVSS
light: B1 light
notes: light: CQ1-3/1-11 VL-kappa; also called H010-F10
Regarding B2, the EC50 in experiment [1] came out at 4.9 nM; in experiment [5], 3.32 nM; in experiment [3], 6.19 nM; in experiment [7], 2.83 nM. Further, the 50% inhibitory concentration (IC50) in experiment [2] was 4.5 nM; in experiment [6] it was 6.76 nM; in experiment [4], 0.837 nM.
